PMC12141716, “An archaeal nucleoid-associated protein binds an essential motif in DNA replication origins” (Nature Communications, 2025)
Each block holds one binder with its values, some of them ahead of it.

Experiments:
UBP (DNA co-crystal) = biological target: T1, UBP (DNA co-crystal) (Sulfolobus islandicus REY15A, UniProt F0NFD3 1-111); experiment: X-ray crystallography; 1.8 A; EMSA: 50 mM K-acetate, 20 mM Tris-acetate, 10 mM Mg-acetate, 1 mM DTT, pH 7.9, 5-10% glycerol, 70 mM NaCl, 800 ng salmon sperm DNA per 10 ul, room temperature 10 min; footprinting same buffer, 4% glycerol, 8000 ng salmon sperm DNA; pull-down 25 mM HEPES pH 7.5, 150 mM NaCl, 10 mM MgCl, 100 uM ZnCl, 10 mM DTT, 48 C; settings: protein: recombinant; tags: MBP tag removed by Factor Xa; 3 extra vector residues at N-terminus; blunt
T1 sequence: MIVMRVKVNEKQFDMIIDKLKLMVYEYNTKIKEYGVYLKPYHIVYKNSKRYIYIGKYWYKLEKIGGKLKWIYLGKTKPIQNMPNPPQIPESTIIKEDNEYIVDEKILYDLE

UBP [1] = biological target: T2, UBP (Sulfolobus islandicus REY15A, UniProt F0NFD3 1-111); experiment: EMSA; 0-740 nM UBP; EMSA: 50 mM K-acetate, 20 mM Tris-acetate, 10 mM Mg-acetate, 1 mM DTT, pH 7.9, 5-10% glycerol, 70 mM NaCl, 800 ng salmon sperm DNA per 10 ul, room temperature 10 min; footprinting same buffer, 4% glycerol, 8000 ng salmon sperm DNA; pull-down 25 mM HEPES pH 7.5, 150 mM NaCl, 10 mM MgCl, 100 uM ZnCl, 10 mM DTT, 48 C; settings: protein: recombinant; tags: MBP tag removed by Factor Xa; 3 extra vector residues at N-terminus; chain copies: 2; label: 5'-32P; blunt
T2 sequence: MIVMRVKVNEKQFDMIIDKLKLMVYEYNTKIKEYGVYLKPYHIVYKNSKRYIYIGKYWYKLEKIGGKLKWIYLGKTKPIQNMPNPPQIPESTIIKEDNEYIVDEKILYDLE

UBP [2] = biological target: T2, UBP; experiment: EMSA; EMSA: 50 mM K-acetate, 20 mM Tris-acetate, 10 mM Mg-acetate, 1 mM DTT, pH 7.9, 5-10% glycerol, 70 mM NaCl, 800 ng salmon sperm DNA per 10 ul, room temperature 10 min; footprinting same buffer, 4% glycerol, 8000 ng salmon sperm DNA; pull-down 25 mM HEPES pH 7.5, 150 mM NaCl, 10 mM MgCl, 100 uM ZnCl, 10 mM DTT, 48 C; settings: protein: recombinant; tags: MBP tag removed by Factor Xa; 3 extra vector residues at N-terminus; chain copies: 2; label: 5'-32P; blunt
[3] = biological target: T3, MCM replicative helicase, full-length recombinant (Sulfolobus islandicus REY15A, UniProt F0NF15 1-686); experiment: MCM recruitment (in vitro loading) assay on bead-bound origin DNA; 200 pM DNA on magnetic beads, UBP and/or Orc1-1 E147A 1 µM, 2 mM ATP, 50 °C, MCM 12.9 nM; washes with binding buffer and with 500 mM potassium acetate; western blot; settings: both partners purified
T3 construct: MCM replicative helicase, Sulfolobus islandicus REY15A, SiRe_1228; The introduction and discussion call archaeal MCM a homohexamer (cited work); also called full-length MCM; recombinant MCM
T3 sequence (looked up): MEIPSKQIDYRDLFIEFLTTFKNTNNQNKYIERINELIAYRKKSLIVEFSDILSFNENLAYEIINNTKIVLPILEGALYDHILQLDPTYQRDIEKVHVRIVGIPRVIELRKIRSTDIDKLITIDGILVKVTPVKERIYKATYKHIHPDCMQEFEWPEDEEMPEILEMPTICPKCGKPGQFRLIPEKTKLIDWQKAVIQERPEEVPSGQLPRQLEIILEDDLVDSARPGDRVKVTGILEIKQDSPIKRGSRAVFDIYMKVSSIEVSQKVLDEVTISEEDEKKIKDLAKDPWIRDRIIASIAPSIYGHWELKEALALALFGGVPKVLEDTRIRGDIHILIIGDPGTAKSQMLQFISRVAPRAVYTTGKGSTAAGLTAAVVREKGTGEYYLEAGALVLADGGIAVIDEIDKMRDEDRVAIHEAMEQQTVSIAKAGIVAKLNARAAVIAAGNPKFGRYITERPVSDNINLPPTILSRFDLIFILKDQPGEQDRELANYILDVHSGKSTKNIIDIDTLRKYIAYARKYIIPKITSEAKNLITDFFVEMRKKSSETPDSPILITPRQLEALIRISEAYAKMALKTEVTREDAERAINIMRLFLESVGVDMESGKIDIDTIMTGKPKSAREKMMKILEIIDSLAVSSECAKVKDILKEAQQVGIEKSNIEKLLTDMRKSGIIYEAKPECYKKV

UBP [4] = biological target: T2, UBP; experiment: EMSA; up to 740 nM UBP; EMSA: 50 mM K-acetate, 20 mM Tris-acetate, 10 mM Mg-acetate, 1 mM DTT, pH 7.9, 5-10% glycerol, 70 mM NaCl, 800 ng salmon sperm DNA per 10 ul, room temperature 10 min; footprinting same buffer, 4% glycerol, 8000 ng salmon sperm DNA; pull-down 25 mM HEPES pH 7.5, 150 mM NaCl, 10 mM MgCl, 100 uM ZnCl, 10 mM DTT, 48 C; settings: protein: recombinant; tags: MBP tag removed by Factor Xa; 3 extra vector residues at N-terminus; chain copies: 2; label: 5'-32P

B1: 12 bp ucm crystal DNA (P49/P50) (dsDNA)
DNA 1: ATTATACAAAAG
DNA 2: CTTTTGTATAAT
modifications: 5-bromo-dU at positions 2 and 5 of strand 1 and 2 and 9 of strand 2 (written T)
binding result (UBP (DNA co-crystal)): binds

B2: ucm 20 bp (P17/P18) (dsDNA)
DNA 1: AACCATTATACAAAAGAATT
DNA 2: AATTCTTTTGTATAATGGTT
binding result (UBP [1]): binds

B3: ucm 50 bp WT (P5/P6) (dsDNA)
DNA 1: TTGTTATAATTAGATAACCATTATACAAAAGAATTGTATAAGAATGAAAT
DNA 2: ATTTCATTCTTATACAATTCTTTTGTATAATGGTTATCTAATTATAACAA
binding result (UBP [2]): binds

binding result [3]: binds
B4: Orc1-1 E147A (Walker B mutant) (natural protein, Sulfolobus islandicus REY15A, UniProt F0NBP2 1-397, looked up)
chain: MSDIIDEVISSFRTSSIFVNREYLMPDYIPDELPHRENQIRKIASILAPLYREEKPNNIFIYGLTGTGKTAVVKFVLSRFHKKFLGKFKYIYINTRQIDTPYRVLADLLESLDVKVPFTGLSIAELYRRLVKAIREYDSQVVIVLDAIDAFVKRYNDDILYKLSRINSEVNRSKVSFIGITNDVKFVDLLDPRVKSSLSEEEIVFPPYNAEELEDILTKRAQMAFRPGVLPDNVIRLCAALAAREHGDARRALDLLRVAGEIAERLKDSKVKEEYVHLAKEEIERDRVRDIILTLPFHSKLVLTAVASMSSEDNVVLTTGAVYETYLNICKKLGVEPITQRRVSDIINELDMVGILRAKVVNRGRYGKTKEIGLAVDKNIIVKSLIESDSRFADLWG
notes: Orc1-1 replication initiator, Sulfolobus islandicus REY15A, SiRe_1740

Binder: AATTCTTTTGTATAATGGTT (ssDNA) [ucm 20 nt lower strand (P18)]
binding result (UBP [4]): no binding
